B1: USP39 (parent)
chain: FQGSMRIFTKKLPHPDLPAEEKEQ
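Note: lentivirally expressed fusions sorted by FACS into six bins by GFP to DsRed ratio, PSI derived from sequencing read proportions per bin multiplied by bin number.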

In the series the parent is B1. Put plainly: protein stability index of a GFP-peptide fusion (GPS, HEK-293T) (PSI 1-6); higher = more stable. The settings on record: c terminus: a fixed tail appended.
For the variant FQGSMRIFTKKLPHPDNPAEEKEQ [L17N], the protein stability index worked out at 2.26.
Regarding FQGSMRIFTKKLPHPDPPAEEKEQ [L17P], the protein stability index worked out at 1.96.
For the variant FQGSMRIFTKKLPHPDVPAEEKEQ [L17V], the protein stability index is 1.88.
As for FQGSMRIFTKKLPHPDRPAEEKEQ [L17R], the protein stability index came to 1.9.
With FQGSMRIFTKKLPHPDHPAEEKEQ [L17H], the protein stability index amounted to 1.92.
With FQGSMRIFTKKLPHPDGPAEEKEQ [L17G], the protein stability index stood at 2.19.
Then FQGSMRIFTKKLPHPDTPAEEKEQ [L17T], with 2.1; and FQGSMRIFTKKLPHPDKPAEEKEQ [L17K], with 1.66; and FQGSMRIFTKKLPHPDQPAEEKEQ [L17Q], with 2.34.
Take FYGSMRIFTKKLPHPDLPAEEKEQ [Q2Y]: the protein stability index is 2.92.
FLGSMRIFTKKLPHPDLPAEEKEQ [Q2L]: the protein stability index is 2.73.
Then FDGSMRIFTKKLPHPDLPAEEKEQ [Q2D], with 4.49.
Then FCGSMRIFTKKLPHPDLPAEEKEQ [Q2C], with 3.34; and FIGSMRIFTKKLPHPDLPAEEKEQ [Q2I], with 1.78; and FQGSRRIFTKKLPHPDLPAEEKEQ [M5R], with 1.89.
In the case of FQGSGRIFTKKLPHPDLPAEEKEQ [M5G], the protein stability index turned out to be 1.73.
As for FQGSVRIFTKKLPHPDLPAEEKEQ [M5V], the protein stability index was found to be 2.17.
Then FQGSDRIFTKKLPHPDLPAEEKEQ [M5D], with 2.11; and FQGSCRIFTKKLPHPDLPAEEKEQ [M5C], with 2.62; and FQGSNRIFTKKLPHPDLPAEEKEQ [M5N], with 2.15.
Then FQGSPRIFTKKLPHPDLPAEEKEQ [M5P], with 1.87; and FQGSARIFTKKLPHPDLPAEEKEQ [M5A], with 2.1; and FQGMMRIFTKKLPHPDLPAEEKEQ [S4M], with 4.08.
As for FQGDMRIFTKKLPHPDLPAEEKEQ [S4D], the protein stability index was found to be 1.33.
Then FQGWMRIFTKKLPHPDLPAEEKEQ [S4W], with 2.04; and FQGAMRIFTKKLPHPDLPAEEKEQ [S4A], with 2.33; and FQGYMRIFTKKLPHPDLPAEEKEQ [S4Y], with 2.25.
For FQGQMRIFTKKLPHPDLPAEEKEQ [S4Q], the protein stability index came out at 2.25.
Then FQGPMRIFTKKLPHPDLPAEEKEQ [S4P], with 2.3; and FQGEMRIFTKKLPHPDLPAEEKEQ [S4E], with 2.28; and YQGSMRIFTKKLPHPDLPAEEKEQ [F1Y], with 2.11.
As for TQGSMRIFTKKLPHPDLPAEEKEQ [F1T], the protein stability index is 4.86.
In the case of EQGSMRIFTKKLPHPDLPAEEKEQ [F1E] it was 5.48; in that of AQGSMRIFTKKLPHPDLPAEEKEQ [F1A], 5.07; in that of GQGSMRIFTKKLPHPDLPAEEKEQ [F1G], 4.66.
Then CQGSMRIFTKKLPHPDLPAEEKEQ [F1C], with 4.82; and SQGSMRIFTKKLPHPDLPAEEKEQ [F1S], with 5.04; and HQGSMRIFTKKLPHPDLPAEEKEQ [F1H], with 4.53.
Then VQGSMRIFTKKLPHPDLPAEEKEQ [F1V], with 4.52.
As to NQGSMRIFTKKLPHPDLPAEEKEQ [F1N], the protein stability index was found to be 5.22.
In the case of DQGSMRIFTKKLPHPDLPAEEKEQ [F1D] it was 5.37; in that of FQGSMRIFTKKLPHDDLPAEEKEQ [P15D], 1.73; in that of FQGSMRIFTKKLPHEDLPAEEKEQ [P15E], 2.19.
As for FQGSMRIFTKKLPHFDLPAEEKEQ [P15F], the protein stability index is 2.14.
On to FQGSMRIFTKKLPHADLPAEEKEQ [P15A], for which the protein stability index amounted to 1.92.
On to FQGSMRIFTKKLPHRDLPAEEKEQ [P15R], for which the protein stability index was determined as 2.03.
Regarding FQGSMRIFTKKLPHHDLPAEEKEQ [P15H], the protein stability index came out at 2.15.
Then FQGSMRIFTKKLPHLDLPAEEKEQ [P15L], with 1.85; and FQGSMRIFTKKLPHPDLPAEENEQ [K22N], with 2.09; and FQGSMRIFTKKLPHPDLPAEEQEQ [K22Q], with 1.62.
In the case of FQGSMRIFTKKLPHPDLPAEEGEQ [K22G], the protein stability index turned out to be 2.13.
With FQGSMRIFTKKLPHPDLPAEEMEQ [K22M], the protein stability index turned out to be 2.32.
With FQGSMRIFTKKLPHPDLPAEECEQ [K22C], the protein stability index came out at 1.69.
Then FQGSMRIFTKKLPHPDLPAEEWEQ [K22W], with 1.93.
Then FQGSMRIFTKKLPHPDLPAEEPEQ [K22P], with 2.09; and FQGSMRIFTKKLPWPDLPAEEKEQ [H14W], with 1.99.
Turning to FQGSMRIFTKKLPNPDLPAEEKEQ [H14N], the protein stability index turned out to be 1.94.
Regarding FQGSMRIFTKKLPEPDLPAEEKEQ [H14E], the protein stability index was 2.05.
FQGSMRIFTKKLPTPDLPAEEKEQ [H14T]: the protein stability index was found to be 2.36.
Regarding FQGSMRIFTKKLPKPDLPAEEKEQ [H14K], the protein stability index turned out to be 1.77.
In the case of FQGSMRIFTKKLPMPDLPAEEKEQ [H14M] it was 2.36; in that of FQGSMRIFTKKLPDPDLPAEEKEQ [H14D], 2.18.
For FQGSMRIFTKKLPVPDLPAEEKEQ [H14V], the protein stability index was 1.88.
Then FQGSMRIFTKKLPAPDLPAEEKEQ [H14A], with 1.9.
Turning to FQGSMRIFTKKLPLPDLPAEEKEQ [H14L], the protein stability index was found to be 2.36.
In the case of FQGSMRIFTKKDPHPDLPAEEKEQ [L12D], the protein stability index was found to be 2.63.
Then FQGSMRIFTKKGPHPDLPAEEKEQ [L12G], with 1.72; and FQGSMRIFTKKQPHPDLPAEEKEQ [L12Q], with 2.23.
With FQGSMRIFTKKNPHPDLPAEEKEQ [L12N], the protein stability index came to 2.05.
In the case of FQGSMRIFTKKSPHPDLPAEEKEQ [L12S] it was 2.41; in that of FQGSMRIFTKKFPHPDLPAEEKEQ [L12F], 1.47.
With FQGSMRIFTKKCPHPDLPAEEKEQ [L12C], the protein stability index turned out to be 2.15.
Then FQGSMRIFTKKWPHPDLPAEEKEQ [L12W], with 1.45.
With FQGSMRIFTKELPHPDLPAEEKEQ [K11E], the protein stability index is 2.85.
Then FQGSMRIFTKNLPHPDLPAEEKEQ [K11N], with 2.35; and FQGSMRIFTKPLPHPDLPAEEKEQ [K11P], with 1.84; and FQGSMRIFTKLLPHPDLPAEEKEQ [K11L], with 1.65.
FQGSMRIFTKSLPHPDLPAEEKEQ [K11S]: the protein stability index is 1.9.
In the case of FQHSMRIFTKKLPHPDLPAEEKEQ [G3H] it was 2.54.
In the case of FQDSMRIFTKKLPHPDLPAEEKEQ [G3D] it was 1.61.
Consider FQESMRIFTKKLPHPDLPAEEKEQ [G3E], for which the protein stability index was 2.17.
As for FQCSMRIFTKKLPHPDLPAEEKEQ [G3C], the protein stability index was 1.86.
Then FQTSMRIFTKKLPHPDLPAEEKEQ [G3T], with 3; and FQLSMRIFTKKLPHPDLPAEEKEQ [G3L], with 2.23.
With FQMSMRIFTKKLPHPDLPAEEKEQ [G3M], the protein stability index turned out to be 2.67.
Consider FQNSMRIFTKKLPHPDLPAEEKEQ [G3N], for which the protein stability index was determined as 2.2.
As for FQGSMRIFTKKLPHPDLPAAEKEQ [E20A], the protein stability index was determined as 1.9.
In the case of FQGSMRIFTKKLPHPDLPAMEKEQ [E20M] it was 1.67; in that of FQGSMRIFTKKLPHPDLPALEKEQ [E20L], 2.07.
Turning to FQGSMRIFTKKLPHPDLPAWEKEQ [E20W], the protein stability index was determined as 2.38.
With FQGSMRIFTKKLPHPDLPAKEKEQ [E20K], the protein stability index was determined as 2.51.
FQGSMRIFTKKLPHPDLPAIEKEQ [E20I]: the protein stability index worked out at 2.03.
In the case of FQGSMRIFTKKLPHPDLPANEKEQ [E20N] it was 1.51.
As for FQGSMRIFTKKLPHPDLPAEEKEF [Q24F], the protein stability index is 1.87.
